The values below come from patent publication US20200255533A1 (NUMAB THERAPEUTICS, published 2020).

To fix the notation:
B1: Vκ1/VH4 consensus λ-capped (TNF-specific scFv) (scFv)
scFv: DIQMTQSPSSLSASVGDRVTITCQASQSISDWLAWYQQKPGKAPKLLIYGASRLASGVPSRFSGSGSGTDFTLTISSLQPEDFATYYCQQGWSDSYVDNLFGGGTKLTVLGGGGGSGGGGSGGGGSGGGGSQVQLQESGPGLVKPSETLSLTCTVSGFSLSSGAMSWIRQPPGKGLEWIGVIISSGATYYASWAKGRVTISVDTSKNQFSLKLSSVTAADTAVYYCARGGPDDSNSMGTFDPWGQGTLVTVSS
notes: scFv; also called capped Vκ1/VH4 consensus molecule
B2: Vκ1/VH4 consensus (T24K, T84S) λ-capped (TNF-specific scFv) (scFv)
scFv: DIQMTQSPSSLSASVGDRVTITCQASQSISDWLAWYQQKPGKAPKLLIYGASRLASGVPSRFSGSGSGTDFTLTISSLQPEDFATYYCQQGWSDSYVDNLFGGGTKLTVLGGGGGSGGGGSGGGGSGGGGSQVQLQESGPGLVKPSETLSLTCKVSGFSLSSGAMSWIRQPPGKGLEWIGVIISSGATYYASWAKGRVTISVDSSKNQFSLKLSSVTAADTAVYYCARGGPDDSNSMGTFDPWGQGTLVTVSS
notes: scFv; also called Vκ1/VH4mut; mutant variant of Vκ1/VH4
B3: Vκ3/VH4 consensus λ-capped (TNF-specific scFv) (scFv)
scFv: DIVLTQSPATLSLSPGERATLSCQASQSISDWLAWYQQKPGQAPRLLIYGASRLASGVPARFSGSGSGTDFTLTISSLEPEDFAVYYCQQGWSDSYVDNLFGGGTKLTVLGGGGGSGGGGSGGGGSGGGGSQVQLQESGPGLVKPSETLSLTCTVSGFSLSSGAMSWIRQPPGKGLEWIGVIISSGATYYASWAKGRVTISVDTSKNQFSLKLSSVTAADTAVYYCARGGPDDSNSMGTFDPWGQGTLVTVSS
notes: scFv
B4: Vκ3/VH4 consensus (T24K, T84S) λ-capped (TNF-specific scFv) (scFv)
scFv: DIVLTQSPATLSLSPGERATLSCQASQSISDWLAWYQQKPGQAPRLLIYGASRLASGVPARFSGSGSGTDFTLTISSLEPEDFAVYYCQQGWSDSYVDNLFGGGTKLTVLGGGGGSGGGGSGGGGSGGGGSQVQLQESGPGLVKPSETLSLTCKVSGFSLSSGAMSWIRQPPGKGLEWIGVIISSGATYYASWAKGRVTISVDSSKNQFSLKLSSVTAADTAVYYCARGGPDDSNSMGTFDPWGQGTLVTVSS
notes: scFv; also called Vκ3/VH4mut

For the experiment, the target named is human TNF (human, UniProt P01375 77-233). In words: SPR, scFv.
Sequence of human TNF (P01375 77-233 limits assumed): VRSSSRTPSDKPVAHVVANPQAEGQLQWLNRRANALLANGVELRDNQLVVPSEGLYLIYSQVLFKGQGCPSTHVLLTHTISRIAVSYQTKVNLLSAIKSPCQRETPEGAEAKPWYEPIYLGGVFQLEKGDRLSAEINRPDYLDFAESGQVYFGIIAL
In general, Kd refers to the free concentration of one partner at which half of the binding sites on the other are occupied at equilibrium, for simple one-to-one binding. A word on the koff: it is the first-order rate constant of dissociation. The kon is the second-order rate constant of association. Lower therefore signals slow association. B1 displayed a Kd of 0.0533 nM, an off-rate constant (koff) of 3.36e-05 s⁻¹ and a kon of 631000 M⁻¹ s⁻¹.

Consider B2, for which the dissociation constant (Kd) was 0.043 nM, the koff was found to be 3.28e-05 s⁻¹ and the kon is 764000 M⁻¹ s⁻¹.

As to B3, the Kd stood at 0.119 nM, the off-rate constant (koff) was 5.25e-05 s⁻¹ and the association rate constant (kon) was 440000 M⁻¹ s⁻¹.

Turning to B4, the Kd came to 0.0793 nM, the koff is 3.09e-05 s⁻¹ and the on-rate (kon) was 390000 M⁻¹ s⁻¹.
